T1: native authentic human α2-macroglobulin (human, UniProt P01023 24-1474, thioester bond intact (native form))
T1 construct: human α2-macroglobulin, UniProt P01023, 1,474-residue precursor; as secreted it lacks the signal peptide (recombinant constructs begin at S24); Tetramer (680.6 kDa by SEC-MALLS); glycosylated; also called hα2M; native hα2M; source: purified from human blood plasma of individual donors (PEG 4,000 precipitation, zinc-chelating resin, IEC, SEC)
T1 sequence (looked up): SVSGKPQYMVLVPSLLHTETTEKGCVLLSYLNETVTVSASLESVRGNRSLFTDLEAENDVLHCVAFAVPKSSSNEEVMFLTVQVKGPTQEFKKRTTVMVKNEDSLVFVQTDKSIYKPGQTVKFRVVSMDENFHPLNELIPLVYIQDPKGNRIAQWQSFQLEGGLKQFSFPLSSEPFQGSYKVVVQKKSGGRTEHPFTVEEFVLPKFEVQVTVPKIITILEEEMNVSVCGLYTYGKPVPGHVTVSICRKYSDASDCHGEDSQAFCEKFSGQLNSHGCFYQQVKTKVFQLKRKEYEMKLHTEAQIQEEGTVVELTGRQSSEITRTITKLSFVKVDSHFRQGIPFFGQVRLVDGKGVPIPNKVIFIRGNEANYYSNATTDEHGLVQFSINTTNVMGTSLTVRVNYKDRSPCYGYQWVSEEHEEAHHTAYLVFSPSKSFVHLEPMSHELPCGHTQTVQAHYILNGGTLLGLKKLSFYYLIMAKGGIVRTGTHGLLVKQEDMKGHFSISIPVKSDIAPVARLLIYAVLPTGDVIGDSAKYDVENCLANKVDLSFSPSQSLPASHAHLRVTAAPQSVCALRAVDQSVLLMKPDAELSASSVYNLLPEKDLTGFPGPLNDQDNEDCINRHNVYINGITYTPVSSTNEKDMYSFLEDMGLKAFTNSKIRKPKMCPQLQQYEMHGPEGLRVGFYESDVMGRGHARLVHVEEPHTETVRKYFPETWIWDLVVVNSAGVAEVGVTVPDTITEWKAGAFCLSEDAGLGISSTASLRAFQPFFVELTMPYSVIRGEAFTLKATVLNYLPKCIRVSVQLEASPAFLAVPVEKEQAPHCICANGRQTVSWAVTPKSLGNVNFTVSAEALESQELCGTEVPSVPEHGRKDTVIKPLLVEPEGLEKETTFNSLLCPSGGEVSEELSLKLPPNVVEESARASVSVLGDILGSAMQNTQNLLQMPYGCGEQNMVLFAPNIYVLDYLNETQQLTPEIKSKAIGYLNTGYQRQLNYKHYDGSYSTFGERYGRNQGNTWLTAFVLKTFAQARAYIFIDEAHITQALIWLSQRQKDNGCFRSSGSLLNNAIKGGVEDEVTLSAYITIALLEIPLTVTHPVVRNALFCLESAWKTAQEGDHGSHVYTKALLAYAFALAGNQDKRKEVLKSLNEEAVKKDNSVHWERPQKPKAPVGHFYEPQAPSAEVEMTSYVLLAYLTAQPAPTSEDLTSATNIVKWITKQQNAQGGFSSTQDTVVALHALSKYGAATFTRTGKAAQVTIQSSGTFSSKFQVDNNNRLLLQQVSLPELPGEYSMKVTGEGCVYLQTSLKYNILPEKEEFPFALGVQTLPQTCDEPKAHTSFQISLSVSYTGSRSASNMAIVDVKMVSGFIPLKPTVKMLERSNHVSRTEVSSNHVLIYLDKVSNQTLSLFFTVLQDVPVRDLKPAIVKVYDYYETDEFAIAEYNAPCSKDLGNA

T2: methylamine-induced authentic human α2-macroglobulin (human, UniProt P01023 24-1474, thioester bond opened by methylamine, producing a free cysteine)
T2 construct: human α2-macroglobulin, UniProt P01023; plasma protein as m1, induced form; Tetramer (684.1 kDa by SEC-MALLS); also called induced hα2M; induced authentic hα2M
T2 sequence (looked up): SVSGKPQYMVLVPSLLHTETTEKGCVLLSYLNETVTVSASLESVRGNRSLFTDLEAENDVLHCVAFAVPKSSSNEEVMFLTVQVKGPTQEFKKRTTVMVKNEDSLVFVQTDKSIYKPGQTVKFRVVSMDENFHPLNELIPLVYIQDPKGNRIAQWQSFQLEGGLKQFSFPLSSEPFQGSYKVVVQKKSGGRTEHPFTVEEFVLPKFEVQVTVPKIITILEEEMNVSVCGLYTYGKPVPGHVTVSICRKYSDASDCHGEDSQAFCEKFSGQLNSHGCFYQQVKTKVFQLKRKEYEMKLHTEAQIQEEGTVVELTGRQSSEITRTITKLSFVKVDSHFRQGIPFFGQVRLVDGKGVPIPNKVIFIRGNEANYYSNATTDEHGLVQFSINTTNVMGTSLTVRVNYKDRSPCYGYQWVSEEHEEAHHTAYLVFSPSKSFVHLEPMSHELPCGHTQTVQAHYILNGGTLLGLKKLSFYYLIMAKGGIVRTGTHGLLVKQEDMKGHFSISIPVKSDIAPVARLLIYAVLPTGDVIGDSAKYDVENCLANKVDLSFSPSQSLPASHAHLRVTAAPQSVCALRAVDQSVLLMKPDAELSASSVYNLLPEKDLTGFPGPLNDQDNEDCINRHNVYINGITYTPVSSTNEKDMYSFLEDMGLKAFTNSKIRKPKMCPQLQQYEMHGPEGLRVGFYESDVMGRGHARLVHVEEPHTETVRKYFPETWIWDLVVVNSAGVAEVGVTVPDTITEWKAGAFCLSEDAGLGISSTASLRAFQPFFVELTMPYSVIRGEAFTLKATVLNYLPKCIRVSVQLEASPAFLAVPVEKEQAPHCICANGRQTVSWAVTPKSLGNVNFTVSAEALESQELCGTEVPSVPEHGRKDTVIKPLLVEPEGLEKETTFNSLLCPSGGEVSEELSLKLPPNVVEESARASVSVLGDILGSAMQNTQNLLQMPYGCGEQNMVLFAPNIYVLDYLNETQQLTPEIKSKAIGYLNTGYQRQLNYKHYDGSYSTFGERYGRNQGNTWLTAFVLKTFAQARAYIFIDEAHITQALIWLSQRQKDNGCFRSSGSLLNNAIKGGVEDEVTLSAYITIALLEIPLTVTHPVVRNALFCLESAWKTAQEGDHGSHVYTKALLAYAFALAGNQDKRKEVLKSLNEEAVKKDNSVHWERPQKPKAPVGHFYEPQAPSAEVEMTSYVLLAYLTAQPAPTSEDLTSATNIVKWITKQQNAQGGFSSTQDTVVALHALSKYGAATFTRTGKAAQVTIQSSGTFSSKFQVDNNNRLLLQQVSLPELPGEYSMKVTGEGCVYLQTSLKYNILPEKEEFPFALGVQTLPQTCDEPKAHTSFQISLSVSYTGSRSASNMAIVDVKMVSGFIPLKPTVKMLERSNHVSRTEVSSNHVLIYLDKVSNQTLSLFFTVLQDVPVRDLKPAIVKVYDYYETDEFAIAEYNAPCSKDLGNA


Columns and labels:
[1] = biological target: the molecule itself; assay: SEC; Superose 6 10/300 (full-length recombinant hα2M) or Superdex 75 10/300 (pro-TGF-β2), buffer D (20 mM Tris-HCl, 150 mM sodium chloride, pH 7.5)
[2] = biological target: T1, native authentic human α2-macroglobulin; assay: native gel or EMSA; Sulfo-NHS-AMCA-labelled GRAB mixed with hα2M variants at a 4:1 molar ratio, buffer J, two hours at 37 °C, 10% native PAGE, gel fluorescence then Coomassie; conditions: both partners purified
[3] = biological target: T2, methylamine-induced authentic human …; assay: as above; conditions: both partners purified

Row | Binder | stoichiometry N [1] | binding result [2] | binding result [3]
1 | N-terminally octahistidine-tagged latent human transforming growth factor-β2 (pro-TGF-β2) (natural protein, residues from the construct between the tag and L21; human pro-TGF-β2 (LAP plus mature TGF-β2), UniProt P61812, residues L21-S414; Partially cleaved before A303 by host peptidases; also called N-terminally His6-tagged pro-TGF-β2; pS6-TGFB2-H8; not shown: His8, N-terminal, kept) LSLSTCSTLDMDQFMRKRIEAIRGQILSKLKLTSPPEDYPEPEEVPPEVISIYNSTRDLLQEKASRRAAACERERSDEEYYAKEVYKIDMPPFFPSENAIPPTFYRPYFRIVRFDVSAMEKNASNLVKAEFRVFRLQNPKARVPEQRIELYQILKSKDLTSPTQRYIDSKVVKTRAEGEWLSFDVTDAVHEWLHHKDRNLGFKISLHCPCCTFVPSNNYIIPNKSEELEARFAGIDGTSTYTSGDQKTIKSTRKKNSGKTPHLLLMLLPSYRLESQQTNRRKKRALDAAYCFRNVQDNCCLRPLYIDFKRDLGWKWIHEPKGYNANFCAGACPYLWSSDTQHSRVLSLYNTINPEASASPCCVSQDLEPLTILYYIGKTPKIEQLSNMIVKSCKCS | 2 | – | –
2 | recombinant full-length human α2-macroglobulin from Expi293F cells (natural protein, UniProt P01023 24-1468, looked up, human α2-macroglobulin, UniProt P01023, residues S24-S1468; also called recombinant hα2M from Expi293F cells; pS6-hα2M-H6; source: Expi293F cells, transiently transfected, secreted (mouse Ig κ leader), purified (Ni-NTA, IEC, SEC); not shown: His6, C-terminal, kept) SVSGKPQYMVLVPSLLHTETTEKGCVLLSYLNETVTVSASLESVRGNRSLFTDLEAENDVLHCVAFAVPKSSSNEEVMFLTVQVKGPTQEFKKRTTVMVKNEDSLVFVQTDKSIYKPGQTVKFRVVSMDENFHPLNELIPLVYIQDPKGNRIAQWQSFQLEGGLKQFSFPLSSEPFQGSYKVVVQKKSGGRTEHPFTVEEFVLPKFEVQVTVPKIITILEEEMNVSVCGLYTYGKPVPGHVTVSICRKYSDASDCHGEDSQAFCEKFSGQLNSHGCFYQQVKTKVFQLKRKEYEMKLHTEAQIQEEGTVVELTGRQSSEITRTITKLSFVKVDSHFRQGIPFFGQVRLVDGKGVPIPNKVIFIRGNEANYYSNATTDEHGLVQFSINTTNVMGTSLTVRVNYKDRSPCYGYQWVSEEHEEAHHTAYLVFSPSKSFVHLEPMSHELPCGHTQTVQAHYILNGGTLLGLKKLSFYYLIMAKGGIVRTGTHGLLVKQEDMKGHFSISIPVKSDIAPVARLLIYAVLPTGDVIGDSAKYDVENCLANKVDLSFSPSQSLPASHAHLRVTAAPQSVCALRAVDQSVLLMKPDAELSASSVYNLLPEKDLTGFPGPLNDQDNEDCINRHNVYINGITYTPVSSTNEKDMYSFLEDMGLKAFTNSKIRKPKMCPQLQQYEMHGPEGLRVGFYESDVMGRGHARLVHVEEPHTETVRKYFPETWIWDLVVVNSAGVAEVGVTVPDTITEWKAGAFCLSEDAGLGISSTASLRAFQPFFVELTMPYSVIRGEAFTLKATVLNYLPKCIRVSVQLEASPAFLAVPVEKEQAPHCICANGRQTVSWAVTPKSLGNVNFTVSAEALESQELCGTEVPSVPEHGRKDTVIKPLLVEPEGLEKETTFNSLLCPSGGEVSEELSLKLPPNVVEESARASVSVLGDILGSAMQNTQNLLQMPYGCGEQNMVLFAPNIYVLDYLNETQQLTPEIKSKAIGYLNTGYQRQLNYKHYDGSYSTFGERYGRNQGNTWLTAFVLKTFAQARAYIFIDEAHITQALIWLSQRQKDNGCFRSSGSLLNNAIKGGVEDEVTLSAYITIALLEIPLTVTHPVVRNALFCLESAWKTAQEGDHGSHVYTKALLAYAFALAGNQDKRKEVLKSLNEEAVKKDNSVHWERPQKPKAPVGHFYEPQAPSAEVEMTSYVLLAYLTAQPAPTSEDLTSATNIVKWITKQQNAQGGFSSTQDTVVALHALSKYGAATFTRTGKAAQVTIQSSGTFSSKFQVDNNNRLLLQQVSLPELPGEYSMKVTGEGCVYLQTSLKYNILPEKEEFPFALGVQTLPQTCDEPKAHTSFQISLSVSYTGSRSASNMAIVDVKMVSGFIPLKPTVKMLERSNHVSRTEVSSNHVLIYLDKVSNQTLSLFFTVLQDVPVRDLKPAIVKVYDYYETDEFAIAEYNAPCS | 4 | – | –
3 | G-related α2M-binding protein (GRAB), V34-N181, labelled with Sulfo-NHS-AMCA (domain or fragment, sulfosuccinimidyl-7-amino-4-methylcoumarin-3-acetate (Sulfo-NHS-AMCA) label, sites not stated, residues left at the N-terminus after TEV cleavage, from the cloning strategy; also called fluorophore-labelled GRAB; labelled GRAB; source: E. coli BL21 (DE3), purified, labelled with Sulfo-NHS-AMCA; not shown: His6, N-terminal, cleaved) GAMVDSPIEQPRIIPNGGTLTNLLGNAPEKLALRNEERAIDELKKQAIEDKEATTAIEAASSDALEALADQTDALQSEEAAVVKADNAASDALEALADQTDALQSEEAEVVQSDNAASDAWEKAATPIALDVKKTKDTKPVVKKEERQNVN | – | binds | binds

Reference: article PMC6591361, “Recombinant production of human α2-macroglobulin variants and interaction studies with recombinant G-related α2-macroglobulin binding protein and latent transforming growth factor-β2” (Scientific Reports, 2019)
